Results taken from the supplement of paper PMC11246515.
± gives the standard deviation of the averaged measurements.

Assay: total protein half-life in vivo (active degradation + dilution); higher = more stable protein
[1] = E. coli NCM3722 delta-clpP delta-lon delta-hslV, growth: N-lim chemostat, doubling time 6 h
[2] = E. coli NCM3722 delta-clpP, growth: N-lim chemostat, doubling time 6 h
[3] = E. coli NCM3722 delta-hslV, growth: N-lim chemostat, doubling time 6 h
[4] = E. coli NCM3722 delta-lon, growth: N-lim chemostat, doubling time 6 h
[5] = E. coli NCM3722 delta-smpB, growth: N-lim chemostat, doubling time 6 h
[6] = wild type E. coli NCM3722, growth: C-lim chemostat, doubling time 3 h
[7] = wild type E. coli NCM3722, growth: C-lim chemostat, doubling time 6 h
[8] = wild type E. coli NCM3722, growth: C-lim chemostat, doubling time 12 h
[9] = wild type E. coli NCM3722, growth: N-lim chemostat, doubling time 6 h
[10] = wild type E. coli NCM3722, growth: N-lim chemostat, doubling time 12 h
[11] = wild type E. coli NCM3722, growth: P-lim chemostat, doubling time 6 h
[12] = wild type E. coli NCM3722, growth: P-lim chemostat, doubling time 12 h

MSQIHKHTIPANIADRCLINPQQYEAMYQQSINVPDTFWGEQGKILDWIKPYQKVKNTSFAPGNVSIKWYEDGTLNLAANCLDRHLQENGDRTAIIWEGDDASQSKHISYKELHRDVCRFANTLLELGIKKGDVVAIYMPMVPEAAVAMLACARIGAVHSVIFGGFSPEAVAGRIIDSNSRLVITSDEGVRAGRSIPLKKNVDDALKNPNVTSVEHVVVLKRTGGKIDWQEGRDLWWHDLVEQASDQHQAEEMNAEDPLFILYTSGSTGKPKGVLHTTGGYLVYAALTFKYVFDYHPGDIYWCTADVGWVTGHSYLLYGPLACGATTLMFEGVPNWPTPARMAQVVDKHQVNILYTAPTAIRALMAEGDKAIEGTDRSSLRILGSVGEPINPEAWEWYWKKIGNEKCPVVDTWWQTETGGFMITPLPGATELKAGSATRPFFGVQPALVDNEGNPLEGATEGSLVITDSWPGQARTLFGDHERFEQTYFSTFKNMYFSGDGARRDEDGYYWITGRVDDVLNVSGHRLGTAEIESALVAHPKIAEAAVVGIPHNIKGQAIYAYVTLNHGEEPSPELYAEVRNWVRKEIGPLATPDVLHWTDSLPKTRSGKIMRRILRKIAAGDTSNLGDTSTLADPGVVEKLLEEKQAIAMPS
total protein half-life in vivo [1]: 4.67 ± 0.31 h
total protein half-life in vivo [2]: 4.83 ± 0.67 h
total protein half-life in vivo [3]: 3.24 ± 0.14 h
total protein half-life in vivo [4]: 3.54 ± 0.24 h
total protein half-life in vivo [5]: 3.221 ± 0.018 h
total protein half-life in vivo [6]: 2.89 ± 0.091 h
total protein half-life in vivo [7]: 4.91 ± 0.44 h
total protein half-life in vivo [8]: 7.66 ± 0.46 h
total protein half-life in vivo [9]: 3.88 ± 0.81 h
total protein half-life in vivo [10]: 4.67 ± 0.55 h
total protein half-life in vivo [11]: 4.28 ± 0.03 h
total protein half-life in vivo [12]: 7.43 ± 0.81 h

MRQVLSSLLVIAGLVSGQAIAAPESPPHADIRDSGFVYCVSGQVNTFNPSKASSGLIVDTLAAQFYDRLLDVDPYTYRLMPELAESWEVLDNGATYRFHLRRDVPFQKTDWFTPTRKMNADDVVFTFQRIFDRNNPWHNVNGSNFPYFDSLQFADNVKSVRKLDNHTVEFRLAQPDASFLWHLATHYASVMSAEYARKLEKEDRQEQLDRQPVGTGPYQLSEYRAGQFIRLQRHDDFWRGKPLMPQVVVDLGSGGTGRLSKLLTGECDVLAWPAASQLSILRDDPRLRLTLRPGMNVAYLAFNTAKPPLNNPAVRHALALAINNQRLMQSIYYGTAETAASILPRASWAYDNEAKITEYNPAKSREQLKSLGLENLTLKLWVPTRSQAWNPSPLKTAELIQADMAQVGVKVVIVPVEGRFQEARLMDMSHDLTLSGWATDSNDPDSFFRPLLSCAAIHSQTNLAHWCDPKFDSVLRKALSSQQLAARIEAYDEAQSILAQELPILPLASSLRLQAYRYDIKGLVLSPFGNASFAGVYREKQDEVKKP
total protein half-life in vivo [3]: 6.48 ± 0.7 h
total protein half-life in vivo [4]: 6.22 ± 0.64 h
total protein half-life in vivo [5]: 5.939 ± 0.032 h
total protein half-life in vivo [6]: 3.129 ± 0.013 h
total protein half-life in vivo [7]: 5.88 ± 0.23 h
total protein half-life in vivo [8]: 11.05 ± 0.028 h
total protein half-life in vivo [9]: 6.39 ± 0.57 h
total protein half-life in vivo [10]: 13.5 ± 0.91 h
total protein half-life in vivo [11]: 6.18 ± 0.2 h
total protein half-life in vivo [12]: 12 ± 1.2 h

MATIKDVAKRANVSTTTVSHVINKTRFVAEETRNAVWAAIKELHYSPSAVARSLKVNHTKSIGLLATSSEAAYFAEIIEAVEKNCFQKGYTLILGNAWNNLEKQRAYLSMMAQKRVDGLLVMCSEYPEPLLAMLEEYRHIPMVVMDWGEAKADFTDAVIDNAFEGGYMAGRYLIERGHREIGVIPGPLERNTGAGRLAGFMKAMEEAMIKVPESWIVQGDFEPESGYRAMQQILSQPHRPTAVFCGGDIMAMGALCAADEMGLRVPQDVSLIGYDNVRNARYFTPALTTIHQPKDSLGETAFNMLLDRIVNKREEPQSIEVHPRLIERRSVADGPFRDYRR [P0ACP7]
total protein half-life in vivo [1]: 5.38 ± 0.92 h
total protein half-life in vivo [2]: 5.291 ± 0.032 h
total protein half-life in vivo [3]: 4.538 ± 0.044 h
total protein half-life in vivo [4]: 5.39 ± 0.36 h
total protein half-life in vivo [5]: 4.55 ± 0.3 h
total protein half-life in vivo [6]: 3.02 ± 0.049 h
total protein half-life in vivo [7]: 5.87 ± 0.35 h
total protein half-life in vivo [8]: 10.4 ± 1.1 h
total protein half-life in vivo [9]: 5.02 ± 0.61 h
total protein half-life in vivo [10]: 7.74 ± 1.6 h
total protein half-life in vivo [11]: 5.29 ± 0.41 h
total protein half-life in vivo [12]: 10.9 ± 1.4 h

MYDYIIVGSGLFGAVCANELKKLNKKVLVIEKRNHIGGNAYTEDCEGIQIHKYGAHIFHTNDKYIWDYVNDLVEFNRFTNSPLAIYKDKLFNLPFNMNTFHQMWGVKDPQEAQNIINAQKKKYGDKVPENLEEQAISLVGEDLYQALIKGYTEKQWGRSAKELPAFIIKRIPVRFTFDNNYFSDRYQGIPVGGYTKLIEKMLEGVDVKLGIDFLKDKDSLASKAHRIIYTGPIDQYFDYRFGALEYRSLKFETERHEFPNFQGNAVINFTDANVPYTRIIEHKHFDYVETKHTVVTKEYPLEWKVGDEPYYPVNDNKNMELFKKYRELASREDKVIFGGRLAEYKYYDMHQVISAALYQVKNIMSTD
total protein half-life in vivo [1]: 6.0745 ± 0.0011 h
total protein half-life in vivo [2]: 3.11 h
total protein half-life in vivo [4]: 4.59 ± 0.33 h
total protein half-life in vivo [5]: 2.83 ± 0.48 h
total protein half-life in vivo [9]: 3.52 h
total protein half-life in vivo [12]: 11.8 h

MELKDYYAIMGVKPTDDLKTIKTAYRRLARKYHPDVSKEPDAEARFKEVAEAWEVLSDEQRRAEYDQMWQHRNDPQFNRQFHHGDGQSFNAEDFDDIFSSIFGQHARQSRQRPATRGHDIEIEVAVFLEETLTEHKRTISYNLPVYNAFGMIEQEIPKTLNVKIPAGVGNGQRIRLKGQGTPGENGGPNGDLWLVIHIAPHPLFDIVGQDLEIVVPVSPWEAALGAKVTVPTLKESILLTIPPGSQAGQRLRVKGKGLVSKKQTGDLYAVLKIVMPPKPDENTAALWQQLADAQSSFDPRKDWGKA
total protein half-life in vivo [1]: 6.73 ± 1.4 h
total protein half-life in vivo [2]: 5.61 ± 0.13 h
total protein half-life in vivo [3]: 5.26 ± 0.1 h
total protein half-life in vivo [4]: 6.28 ± 0.45 h
total protein half-life in vivo [5]: 4.99 ± 0.26 h
total protein half-life in vivo [6]: 3.32 ± 0.26 h
total protein half-life in vivo [7]: 5.86 ± 1.2 h
total protein half-life in vivo [9]: 4.87 ± 0.37 h
total protein half-life in vivo [10]: 9.91 ± 2.2 h
total protein half-life in vivo [11]: 5.76 ± 0.35 h
total protein half-life in vivo [12]: 12.8 ± 0.6 h

MDQAGIIRDLLIWLEGHLDQPLSLDNVAAKAGYSKWHLQRMFKDVTGHAIGAYIRARRLSKSAVALRLTARPILDIALQYRFDSQQTFTRAFKKQFAQTPALYRRSPEWSAFGIRPPLRLGEFTMPEHKFVTLEDTPLIGVTQSYSCSLEQISDFRHEMRYQFWHDFLGNAPTIPPVLYGLNETRPSQDKDDEQEVFYTTALAQDQADGYVLTGHPVMLQGGEYVMFTYEGLGTGVQEFILTVYGTCMPMLNLTRRKGQDIERYYPAEDAKAGDRPINLRCELLIPIRR [P0ACI0]
total protein half-life in vivo [1]: 5.25 ± 0.62 h
total protein half-life in vivo [2]: 5.39 ± 0.29 h
total protein half-life in vivo [3]: 5.7 ± 1.1 h
total protein half-life in vivo [4]: 5.49 ± 0.38 h
total protein half-life in vivo [5]: 5.37 ± 0.28 h
total protein half-life in vivo [6]: 2.92 ± 0.065 h
total protein half-life in vivo [7]: 6.47 ± 0.27 h
total protein half-life in vivo [8]: 11.3 ± 0.12 h
total protein half-life in vivo [9]: 5.15 ± 0.4 h
total protein half-life in vivo [10]: 9.41 ± 0.68 h
total protein half-life in vivo [11]: 5.31 ± 0.06 h
total protein half-life in vivo [12]: 11.8 ± 0.37 h

MQFDWSAIWPAIPLLIEGAKMTLWISVLGLAGGLVIGLLAGFARTFGGWIANHVALVFIEVIRGTPIVVQVMFIYFALPMAFNDLRIDPFTAAVVTIMINSGAYIAEITRGAVLSIHKGFREAGLALGLSRWETIRYVILPLALRRMLPPLGNQWIISIKDTSLFIVIGVAELTRQGQEIIAGNFRALEIWSAVAVFYLIITLVLSFILRRLERRMKIL [P0AEQ6]
total protein half-life in vivo [1]: 7.5 ± 0.32 h
total protein half-life in vivo [2]: 5.86 ± 0.24 h
total protein half-life in vivo [3]: 6.66 ± 0.23 h
total protein half-life in vivo [4]: 5.82 ± 0.19 h
total protein half-life in vivo [5]: 6.3 ± 1.3 h
total protein half-life in vivo [6]: 3.216 ± 0.017 h
total protein half-life in vivo [7]: 6.15 ± 0.25 h
total protein half-life in vivo [9]: 6.75 ± 0.56 h
total protein half-life in vivo [10]: 11.4 ± 4.3 h
total protein half-life in vivo [12]: 13 ± 0.43 h
